These results are taken from publication PMC7160566.

First the molecules themselves.
B1: LexA_(DBDwt)-SehB-WT [Salmonella enterica serotype Typhimurium] / LexA_(DBDmut)-SehA [Salmonella enterica serotype Typhimurium] (parent)
chain 1: MRTHRQMDATSAKKIVDTFSDAVKTVPLMGEDRNDNEYRRALALVEFLVDHDDLENPLFELLCARISEYEKHAPEFKALNQHLEKTPPGVSVLRTLMDQYGLKAADLANELGSKSNVSNILNGRRALTVNHIKALTQRFKLPADAFIE
chain 2: MHVISRKPFNEAMLMYPNHELALTELLNVLEKKTFTQPEEMKRYIPSLDNFKYRDKWWVIDVSGNSLRLISYIDFRLHKIFVKHIVSHAEYDKLTAYYRGNKE
B2: LexA_(DBDwt)-SehB-WT [Salmonella enterica serotype Typhimurium] / itself (parent)
chain: B1 chain 1

In the first assay the parent is B1. The assay can be described thus: LexA-based genetic system for heterodimerization (sulA-lacZ reporter, E. coli SU202). The note with it: with LexA_(DBDmut)-SehA [Salmonella enterica serotype Typhimurium]; LB broth at 37°C to an OD600 nm of 1.0; 1 mM IPTG; parent: 750; read off a plot.
With chain 1 L48A, the response turned out to be 940 U/mg.

In the case of chain 1 Y38A, the response was found to be 1100 U/mg.

As to chain 1 L58A, the response is 820 U/mg. chain 1 S113A: the response was found to be 760 U/mg. Still for that read-out and setting: for chain 1 F146A the value was 780 U/mg; for chain 1 L135A, 720 U/mg. The same measure, in the same setting: as for chain 1 L127A, the figure is 770 U/mg; as for chain 1 I66A, 630 U/mg.

Variants of B2 are the subject of a further assay. As to the kind of experiment: LexA-based genetic system for homodimerization (sulA-lacZ reporter, E. coli SU101). The note with it: with itself; LB broth at 37°C to an OD600 nm of 1.0; 1 mM IPTG; parent: 130; read off a plot.
chain 1 L135A: the response was determined as 130 U/mg. For chain 1 I66A, the response came to 680 U/mg.

In the case of chain 1 L48A, the response worked out at 770 U/mg.

For the variant chain 1 S113A, the response came to 110 U/mg. On the same count and under the same terms, as for chain 1 L127A, the figure is 170 U/mg.

Regarding chain 1 Y38A, the response is 600 U/mg. Same read-out and setting: for chain 1 F146A the value was 110 U/mg; for chain 1 L58A, 650 U/mg.
